In this series the target is T1, PTK7 (on intact CCRF-CEM cells) (human (CCRF-CEM, T cell acute lymphoblastic leukemia)) (UniProt Q13308).
T1 sequence: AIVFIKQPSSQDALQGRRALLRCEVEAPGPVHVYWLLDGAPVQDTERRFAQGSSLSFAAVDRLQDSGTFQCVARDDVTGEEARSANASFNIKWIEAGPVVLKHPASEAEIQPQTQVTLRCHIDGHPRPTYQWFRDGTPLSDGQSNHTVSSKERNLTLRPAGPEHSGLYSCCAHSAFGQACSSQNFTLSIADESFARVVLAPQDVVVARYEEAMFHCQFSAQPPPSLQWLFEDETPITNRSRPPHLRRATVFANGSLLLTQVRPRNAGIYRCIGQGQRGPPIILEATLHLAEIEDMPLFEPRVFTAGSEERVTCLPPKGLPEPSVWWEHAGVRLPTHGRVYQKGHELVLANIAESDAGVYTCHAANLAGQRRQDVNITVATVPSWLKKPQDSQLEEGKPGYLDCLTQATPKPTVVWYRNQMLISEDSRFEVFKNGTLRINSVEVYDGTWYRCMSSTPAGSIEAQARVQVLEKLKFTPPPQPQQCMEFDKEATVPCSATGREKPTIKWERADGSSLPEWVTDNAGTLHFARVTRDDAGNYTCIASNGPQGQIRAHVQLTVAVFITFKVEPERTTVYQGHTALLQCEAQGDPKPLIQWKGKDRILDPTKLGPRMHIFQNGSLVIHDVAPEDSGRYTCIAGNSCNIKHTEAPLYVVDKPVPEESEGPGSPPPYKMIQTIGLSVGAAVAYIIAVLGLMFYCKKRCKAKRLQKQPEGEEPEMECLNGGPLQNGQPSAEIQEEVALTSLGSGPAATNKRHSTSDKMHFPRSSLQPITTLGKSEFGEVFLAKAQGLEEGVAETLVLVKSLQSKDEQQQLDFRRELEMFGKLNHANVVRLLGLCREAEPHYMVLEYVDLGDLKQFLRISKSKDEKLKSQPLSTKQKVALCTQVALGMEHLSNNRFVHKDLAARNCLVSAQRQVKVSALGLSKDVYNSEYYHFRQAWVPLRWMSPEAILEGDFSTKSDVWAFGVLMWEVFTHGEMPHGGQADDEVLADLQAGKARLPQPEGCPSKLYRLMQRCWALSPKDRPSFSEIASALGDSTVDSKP
Description: flow cytometry, CCRF-CEM cells. To be noted: apparent Kd on cells, 1x PBS, 0.55 mM MgCl2, pH 7.4, 200 uL, 1e5 cells, 30 min in the dark at room temperature (Methods; Results say on ice).

On to “ATCTAACTGCTGCGCCGCCGGGAAAATACTGTACGGTTAGA [free sgc8]”, for which the Kd came out at 2.95 nM.

For the sequence “TATGTCTCGAGTATTTTTATCTAACTGCTGCGCCGCCGGGAAAATACTGTACGGTTAGA / GACCGATGGATGACCTGTCTGCCTAATGTGCGTCGTAAG / GACCGATGGATGACTTACGACGCACAAGGAGATCATGAG / GACCGATGGATGACTCATGATCTCCTTTAGGCAGACAGG / GAAGCCACTCTGACCTGTCTGCCTAATGTGCGTCGTAAG / GAAGCCACTCTGACTTACGACGCACAAGGAGATCATGAG / TCATCCATCGGTCCTCATGATCTCCTTTAGGCAGACAGG / GACACACTGAGGTCCTGTCTGCCTAATGTGCGTCGTAAG / GACACACTGAGGTCTTACGACGCACAAGGAGATCATGAG / TCAGAGTGGCTTCCTCATGATCTCCTTTAGGCAGACAGG / TACTCGAGACATACCTGTCTGCCTAATGTGCGTCGTAAG / TACTCGAGACATACTTACGACGCACAAGGAGATCATGAG / ACCTCAGTGTGTCCTCATGATCTCCTTTAGGCAGACAGG [G3-sgc8 DNA dendrimer]”, where the note is “multivalent”, the Kd is 0.07 nM.
